Measurements published in the RNAGym collection of RNA variant scans (doi:10.1073/pnas.2313332121).

B1: TPR t1 (parent)
chain: GACCAAUCUGCCCUCAGAGCUCGAGAACAUCUUCGGAUGCAGAGGAGGCAGGCUUCGGUGGCGCGAUAGCGCCAACGUCCUCAACCUCCAAUGCAUCCCACCACAUGAUGAUGCCUGAAGAGCCUUGGUUUUUUG

Variants of: B1
Assay: polymerase ribozyme fitness, log enrichment relative to wild type (log ratio); higher = more active; in vitro selection for triplet polymerase activity
Method in brief: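 Each subunit of a heterodimeric triplet polymerase ribozyme was represented by a PCR-built, transcribed mutant library that underwent triplicate single-round in vitro selection with frozen incubation at −7 °C. Extended constructs were recovered by gel excision, streptavidin-bead capture and RT-PCR, and Illumina sequencing of input and output libraries kept genotypes with ≥10 input reads and ≥1 read per output. Fitness is the logarithm of genotype enrichment relative to wild-type enrichment, from inverse-variance-weighted replicate averages, with a logarithm base of 2.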

Variant	polymerase ribozyme fitness (log ratio)
G63C C79U U129C	-0.807
G63C U96A	-2.05
G63A U116A	-3.92
G63A U116G	-3.24
C64A C94A	-6.34
G63C G93C C97U C101U	-1.93
G63A A68G	-3.95
G63U C123G	0.817
G63U U131C U132A	-1.24
C62U G63U U109G	-7.47
G63A U109G	-4.41
G63A C104U C114G	-4.92
C62U C101U	-0.317
G63A C89A	-3.19
G63U U116A	-3.57
G63U C104U	-1.36
G63U C86A	-2.12
G63U U106G	-3.21
G63U C73A	-2.51
G63C U87A A100U G127C	-2.77
G63C G120A	0.11

Variant	polymerase ribozyme fitness (log ratio)
G63C G120U	-0.189
G63C U92A C98U	-5.26
G63C A111C A121C	-0.162
G63A A84U U92G G117A	-6.18
G63U U78A A90U C94U G122U	-3.99
G63A G117C	-3.7
G63A G117A	-2.26
G63A U112A	-0.0284
G63C A75U	-0.329
C64G C124U	-5.45
G63A C79U A91U	-3.61
G63U U134C	-2.26
G63A A111U G122A	-6.48
G63U C70U U129A	-1.48
C62U U78G	-0.0458
G63U C72G	-3.89
G63U C72A	-4.54
G63A U78C G93A G122A	-2.28
C62U G110A	-1.23
C62U C86G G117A A119U	-0.588
C62U U87G U109A	-5.76

Variant	polymerase ribozyme fitness (log ratio)
G63U A105U	-3.37
G63C U78C	-1.55
G63U C98U	-2.09
G63U C98A	-6.63
G63C G65A	-5.84
G63A A66U	-2.44
G63C C89A U116G	-4.71
G63U U78C C101A	-4.07
C62U U81G	-3.67
C62U C94U C98G G110U	-6.52
G63C C98G U116A C124G	-5.39
C62U U78C A100U	-0.796
C64U A84C C123G G135C	1.41
G63A C123A	-0.259
C62U U109C	-4
C62U U109A	-4.57
G63C C88G	-1.3
G63U C101A U116C A119G G120U	-3.85
C62U U131C	0.107
G63A G93C G113U	-5.1
G63U U109G	-6.35

Variant	polymerase ribozyme fitness (log ratio)
C64A U106C	-6.82
G63A A66U U106A G117A	-4.86
G63U A84G	-2.18
G63A A95C	-2.22
G63A A95U	-0.563
C64G C115A G128A U130C	-5.49
C62U U92G C99A C124U U131C	-5.96
G63U U81G A121C	-3.58
G63A C99A A121C	-5.41
C64G C123U	-3.63
C64G C123G	-5.33
G63U A95U C124U G135A	-0.147
C62U C99U	-3.59
G63A C88U C97U G113C	-4.04
C62U U130A	-0.419
G63U A91C	-3.19
G63U C70A U116A	-3.62
C64A U87A G93A U112A	-5.11
G63A C88U A118C	-3.02
C62U C124A	1.84
G63A C104U G120A G127A	-0.508
